Data as given in PMC9482650, “Quantitative fragmentomics allow affinity mapping of interactomes” (Nature Communications, 2022).

What was measured:
Test in all cases: holdup assay
Design in all cases: key: below the threshold = too weak to quantify, mostly under pKd 3.1 to 4
[1] = target: MAST2, Q6P0Q8
[2] = target: PTPN3, P26045
[3] = target: FRMPD3, Q5JV73
[4] = target: T1, PDZD2_2, O15018
T1 sequence (O15018 329-429, limits assumed, looked up): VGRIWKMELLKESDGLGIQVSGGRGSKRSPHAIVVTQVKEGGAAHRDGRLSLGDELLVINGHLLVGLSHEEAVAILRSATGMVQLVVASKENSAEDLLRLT

[5] = target: SCRIB_1, Q14160
Sequence of SCRIB_1, Q14160 (Q14160 718-814): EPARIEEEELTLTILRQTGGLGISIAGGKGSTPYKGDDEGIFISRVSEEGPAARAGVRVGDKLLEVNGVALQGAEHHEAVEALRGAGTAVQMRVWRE

[6] = target: NHERF4_4, Q86UT5
Sequence of NHERF4_4, Q86UT5 (Q86UT5 464-550): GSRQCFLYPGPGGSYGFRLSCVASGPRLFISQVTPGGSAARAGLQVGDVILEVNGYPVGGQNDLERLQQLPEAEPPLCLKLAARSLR

[7] = target: T2, DFNB31_1, Q9P202
T2 sequence (Q9P202 135-233, limits assumed, looked up): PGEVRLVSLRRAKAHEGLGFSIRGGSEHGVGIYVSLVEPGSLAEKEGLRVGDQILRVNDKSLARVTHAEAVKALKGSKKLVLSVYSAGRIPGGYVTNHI

[8] = target: GRIP2_4, Q9C0E4
Sequence of GRIP2_4, Q9C0E4 (Q9C0E4 446-548): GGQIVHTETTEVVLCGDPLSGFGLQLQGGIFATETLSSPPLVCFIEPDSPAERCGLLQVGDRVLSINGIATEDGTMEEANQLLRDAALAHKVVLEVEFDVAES

[9] = target: GRIP2_6, Q9C0E4
Sequence of GRIP2_6, Q9C0E4 (Q9C0E4 648-740): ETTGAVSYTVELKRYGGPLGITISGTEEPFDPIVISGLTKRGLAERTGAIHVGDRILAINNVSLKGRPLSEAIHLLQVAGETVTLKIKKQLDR

[10] = target: GRID2IP_2, A4D2P6
Sequence of GRID2IP_2, A4D2P6 (A4D2P6 272-370): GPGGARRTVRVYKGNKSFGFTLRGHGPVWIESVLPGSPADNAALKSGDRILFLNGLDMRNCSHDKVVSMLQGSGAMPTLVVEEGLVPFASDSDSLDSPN

[11] = target: T3, LRRC7, Q96NW7
T3 sequence (Q96NW7 1440-1537, limits assumed, looked up): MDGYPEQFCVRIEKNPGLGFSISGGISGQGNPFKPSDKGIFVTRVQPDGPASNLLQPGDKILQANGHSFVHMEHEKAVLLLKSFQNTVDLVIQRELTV

[12] = target: T4, SYNJ2BP, P57105
T4 sequence (P57105 8-110, limits assumed, looked up): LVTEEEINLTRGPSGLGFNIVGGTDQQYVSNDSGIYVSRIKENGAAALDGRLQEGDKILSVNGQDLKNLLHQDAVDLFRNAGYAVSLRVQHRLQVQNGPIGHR

[13] = target: T5, GRIP1_4, Q9Y3R0
T5 sequence (Q9Y3R0 467-571, limits assumed, looked up): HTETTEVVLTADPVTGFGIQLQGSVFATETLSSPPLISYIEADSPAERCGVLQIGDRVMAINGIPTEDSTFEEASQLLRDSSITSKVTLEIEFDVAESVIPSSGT

[14] = target: PARD3_3, Q8TEW0
Sequence of PARD3_3, Q8TEW0 (Q8TEW0 582-685): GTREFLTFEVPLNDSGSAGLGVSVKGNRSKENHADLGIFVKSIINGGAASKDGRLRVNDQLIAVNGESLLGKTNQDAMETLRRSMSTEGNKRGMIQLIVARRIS

[15] = target: T6, HTRA3, P83110
T6 sequence (P83110 354-453, limits assumed, looked up): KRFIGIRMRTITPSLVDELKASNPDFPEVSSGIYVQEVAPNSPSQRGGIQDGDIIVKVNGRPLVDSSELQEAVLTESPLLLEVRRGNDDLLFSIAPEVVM

[16] = target: LNX1_2, Q8TBB1
Sequence of LNX1_2, Q8TBB1 (Q8TBB1 371-470): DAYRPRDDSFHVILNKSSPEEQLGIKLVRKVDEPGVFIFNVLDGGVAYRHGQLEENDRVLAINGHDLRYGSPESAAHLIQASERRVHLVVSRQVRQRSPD

[17] = target: TJP2_1, Q9UDY2
Sequence of TJP2_1, Q9UDY2 (Q9UDY2 24-128): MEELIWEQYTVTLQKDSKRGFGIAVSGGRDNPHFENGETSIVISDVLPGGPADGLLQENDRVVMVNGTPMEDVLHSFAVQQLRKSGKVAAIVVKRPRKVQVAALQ

[18] = target: IL16_1, Q14005
Sequence of IL16_1, Q14005 (Q14005 210-306): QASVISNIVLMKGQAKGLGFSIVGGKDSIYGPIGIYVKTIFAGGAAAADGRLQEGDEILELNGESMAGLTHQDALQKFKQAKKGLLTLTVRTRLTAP

[19] = target: T7, DLG3_1, Q92796
T7 sequence (Q92796 125-227, limits assumed, looked up): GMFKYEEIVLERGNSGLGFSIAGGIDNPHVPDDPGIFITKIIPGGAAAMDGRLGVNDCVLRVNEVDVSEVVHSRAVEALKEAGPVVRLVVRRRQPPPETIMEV

[20] = target: MAGI1_1, Q96QZ7
Sequence of MAGI1_1, Q96QZ7 (Q96QZ7 1-106): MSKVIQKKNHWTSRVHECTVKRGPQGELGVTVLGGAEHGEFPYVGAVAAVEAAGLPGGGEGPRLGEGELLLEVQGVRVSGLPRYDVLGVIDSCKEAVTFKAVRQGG

[21] = target: IL16_4, Q14005
Sequence of IL16_4, Q14005 (Q14005 1229-1329): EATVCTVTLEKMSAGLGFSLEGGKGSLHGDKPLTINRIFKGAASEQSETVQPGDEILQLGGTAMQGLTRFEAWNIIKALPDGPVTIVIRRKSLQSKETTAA

[22] = target: SNX27, Q96L92
[23] = target: T8, LNX2_3, Q8N448
T8 sequence (Q8N448 463-564, limits assumed, looked up): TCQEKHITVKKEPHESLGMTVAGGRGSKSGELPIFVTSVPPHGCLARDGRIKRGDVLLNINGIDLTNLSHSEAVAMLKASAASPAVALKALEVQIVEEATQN

[24] = target: T9, APBA3_1, O96018
T9 sequence (O96018 389-490, limits assumed, looked up): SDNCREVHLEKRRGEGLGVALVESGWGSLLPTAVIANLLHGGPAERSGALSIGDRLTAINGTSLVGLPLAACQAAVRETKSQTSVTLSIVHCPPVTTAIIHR

[25] = target: MAGI3_2, Q5TCQ9
Sequence of MAGI3_2, Q5TCQ9 (Q5TCQ9 398-503): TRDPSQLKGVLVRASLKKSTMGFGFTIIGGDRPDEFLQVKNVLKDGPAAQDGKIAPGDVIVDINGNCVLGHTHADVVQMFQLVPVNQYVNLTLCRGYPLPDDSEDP

[26] = target: T10, ARHGEF11, O15085
T10 sequence (O15085 42-136, limits assumed, looked up): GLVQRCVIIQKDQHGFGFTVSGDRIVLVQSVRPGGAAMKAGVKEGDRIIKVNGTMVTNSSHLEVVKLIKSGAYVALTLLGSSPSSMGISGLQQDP

[27] = target: DLG4_2, P78352
Sequence of DLG4_2, P78352 (P78352 155-259): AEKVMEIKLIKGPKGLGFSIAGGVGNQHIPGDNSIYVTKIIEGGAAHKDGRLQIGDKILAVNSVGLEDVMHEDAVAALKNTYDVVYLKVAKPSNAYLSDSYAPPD

[28] = plain residues with an end cap or a label only (N-terminal biotin on a linker: ttds)
[29] = plain residues with an end cap or a label only (N-terminal biotin on a linker: ado-ado)

Sequence of MAST2, Q6P0Q8 (Q6P0Q8 1099-1202): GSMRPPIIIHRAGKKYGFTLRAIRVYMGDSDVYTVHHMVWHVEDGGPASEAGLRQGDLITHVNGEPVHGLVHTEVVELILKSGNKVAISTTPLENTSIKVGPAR
Sequence of FRMPD3, Q5JV73 (Q5JV73 12-100): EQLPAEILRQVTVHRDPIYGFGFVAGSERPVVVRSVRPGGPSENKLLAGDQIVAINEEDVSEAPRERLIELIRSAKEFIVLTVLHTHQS
Sequence of PTPN3, P26045 (P26045 505-587): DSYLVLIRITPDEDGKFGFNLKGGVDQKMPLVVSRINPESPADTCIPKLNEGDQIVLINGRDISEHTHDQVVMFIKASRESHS

NQLAWFDTDL [CTNNB1, P35222] was tested, and the pKd [1, 28] was 6.04, the pKd [2, 28] was 4.33 and the pKd [3, 28] was “below the threshold”. For the same binder, the pKd [4, 28] was “below the threshold”, the pKd [5, 28] was 4.86 and the pKd [6, 28] was 4.04. The pKd [7, 28] was 4.28, the pKd [8, 28] was “below the threshold” and the pKd [9, 28] was “below the threshold”. For the same binder, the pKd [10, 28] was “below the threshold”, the pKd [11, 28] was 3.94 and the pKd [12, 28] was 4.09. The pKd [13, 28] was “below the threshold”, the pKd [14, 28] was “below the threshold” and the pKd [15, 28] was “below the threshold”. The pKd [16, 28] was “below the threshold”, the pKd [17, 28] was “below the threshold” and the pKd [18, 28] was “below the threshold”. For the same binder, the pKd [19, 28] was “below the threshold”, the pKd [20, 28] was “below the threshold” and the pKd [21, 28] was “below the threshold”. The pKd [22, 28] was 4.91, the pKd [23, 28] was “below the threshold” and the pKd [24, 28] was “below the threshold”. For the same binder, the pKd [25, 28] was “below the threshold”, the pKd [26, 28] was 3.77 and the pKd [27, 28] was “below the threshold”.

In the case of GKKSVKHSKI [ACOT6, Q3I5F7], the pKd [1, 29] is reported as 4.03, the pKd [2, 29] is reported as 4.19 and the pKd [3, 29] is reported as “below the threshold”. It also gave a pKd [4, 29] of 4.03, a pKd [5, 29] of 3.82 and a pKd [6, 29] of 3.76. For the same binder, the pKd [7, 29] was 4.33, the pKd [8, 29] was “below the threshold” and the pKd [9, 29] was “below the threshold”. For the same binder, the pKd [10, 29] was 3.83, the pKd [11, 29] was “below the threshold” and the pKd [12, 29] was “below the threshold”. For the same binder, the pKd [13, 29] was “below the threshold”, the pKd [14, 29] was “below the threshold” and the pKd [15, 29] was “below the threshold”. The pKd [16, 29] was “below the threshold”, the pKd [17, 29] was “below the threshold” and the pKd [18, 29] was “below the threshold”. For the same binder, the pKd [19, 29] was “below the threshold”, the pKd [20, 29] was “below the threshold” and the pKd [21, 29] was “below the threshold”. For the same binder, the pKd [22, 29] was “below the threshold”, the pKd [23, 29] was “below the threshold” and the pKd [24, 29] was “below the threshold”. The pKd [25, 29] was 4.07, the pKd [26, 29] was “below the threshold” and the pKd [27, 29] was 3.88.
